Assay results as given in the supplement of paper PMC7877785.
± gives the uncertainty stated by the source.

Experiment: self-splicing fitness, log relative to wild type (ln ratio); higher = more splicing; Tetrahymena group I intron in knt gene, E. coli kanamycin selection, DiMSum; sequences stand for … in CUCUCU…GGAGGGAAAAGUUAUCAGGCAUGCACCUGGUAGCUAGUCUUUAAACCAAUAGAUUGCAUCGGUUUAAAAGGCAAGACCGUCAAAUUGCGGGAAAGGGGUCAACAGCCGUUCAGUACCAAGUCUCAGGGGAAACUUUGAGAUGGCCUUGCAAAGGGUAUGGUAAUAAGCUGACGGACAUGGUCCUAACCACGCAGCCAAGUCCUAAGUCAACAGAUCUUCUGUUGAUAUGGAUGCAGUUCACAGACUAAAUGUCGGUCGGGGAAGAUGUAUUCUUCUCAUAAGAUAUAGUCGGACCUCUCCUUAAUGGGAGCUAGCGGAUGAAGUGAUGCAACACUGGAGCCGCUGGGAACUAAUUUGUAUGCGAAAGUAUAUUGAUUAGUUUUGGAGUACUCGUGGUCG
How it was run: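 Colonies from six replicate transformations of E. coli BL21(DE3) were pooled and amplicon-sequenced on an Illumina HiSeq 2500. The library placed an intron with all eight P1ex-region nucleotides randomised inside the knt kanamycin-resistance gene on pET-22b(+), and cells grew overnight at 37°C or 30°C on LB agar with or without 25 μg/mL kanamycin (plus 100 μg/mL carbenicillin, 50 μM IPTG, 0.2% rhamnose). Fitness is the DiMSum error-weighted combination of wild-type-normalised replicate fold changes, kanamycin versus none.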

Sequence	self-splicing fitness (ln) (30 °C)	self-splicing fitness (ln) (37 °C)
UGCUAGCAAUAUUACGUUGG	-3.3 ± 0.19	-2.49 ± 0.2
UGGAAGCAAUAUUACGAACG	-0.465 ± 0.24	-0.592 ± 0.32
UGGAAGCAAUAUUACGACAA	-1.46 ± 0.14	-1.88 ± 0.17
UGGAAGCAAUAUUACGACCU	0.308 ± 0.11	0.699 ± 0.12
UGGAAGCAAUAUUACGAGGA	-2.94 ± 0.4	-2.82 ± 0.4
UGGAAGCAAUAUUACGAGGG	–	-1.89 ± 0.34
UGGAAGCAAUAUUACGCAAA	-1.24 ± 0.16	-0.937 ± 0.16
UGGAAGCAAUAUUACGCACU	-0.488 ± 0.12	-0.124 ± 0.15
UGGAAGCAAUAUUACGCAUU	-2.63 ± 0.27	–
UGGAAGCAAUAUUACGCCCA	–	-0.992 ± 0.45
UGGAAGCAAUAUUACGCCCG	-0.383 ± 0.22	0.191 ± 0.27
UGGAAGCAAUAUUACGCGUC	-0.409 ± 0.2	-1.89 ± 0.27
UGGAAGCAAUAUUACGGACG	-1.13 ± 0.16	0.0618 ± 0.28
UGGAAGCAAUAUUACGGAGU	-3.51 ± 0.22	-2.75 ± 0.22
UGGAAGCAAUAUUACGGCAC	–	-1.36 ± 0.37
UGGAAGCAAUAUUACGGCCC	-0.223 ± 0.15	0.256 ± 0.18
UGGAAGCAAUAUUACGGCUG	-0.475 ± 0.099	1.02 ± 0.12
UGGAAGCAAUAUUACGGGUG	-1.07 ± 0.063	-0.839 ± 0.083
UGGAAGCAAUAUUACGGUAA	-1.48 ± 0.18	-0.845 ± 0.14
UGGAAGCAAUAUUACGGUAC	-4.18 ± 0.39	-1.5 ± 0.25
UGGAAGCAAUAUUACGGUAU	-3.09 ± 0.38	–
UGGAAGCAAUAUUACGGUCA	-0.00492 ± 0.13	0.828 ± 0.15
UGGAAGCAAUAUUACGGUGC	-2.93 ± 0.3	-2.86 ± 0.43

Sequence	self-splicing fitness (ln) (30 °C)	self-splicing fitness (ln) (37 °C)
UGGAAGCAAUAUUACGUACC	-1.73 ± 0.19	-0.601 ± 0.23
UGGAAGCAAUAUUACGUAGG	-1.13 ± 0.067	-1.05 ± 0.092
UGGAAGCAAUAUUACGUAGU	-2.9 ± 0.27	-1.41 ± 0.2
UGGAAGCAAUAUUACGUAUG	-1.96 ± 0.16	-0.289 ± 0.14
UGGAAGCAAUAUUACGUGCA	-0.0243 ± 0.057	-0.187 ± 0.067
UGGCAGCAAUAUUACGAAGC	–	-1.72 ± 0.45
UGGCAGCAAUAUUACGAAGG	-2.93 ± 0.18	-1.21 ± 0.23
UGGCAGCAAUAUUACGACGG	-0.817 ± 0.15	0.837 ± 0.17
UGGCAGCAAUAUUACGACUA	0.138 ± 0.07	0.38 ± 0.1
UGGCAGCAAUAUUACGAGGA	-2.34 ± 0.34	-1.75 ± 0.26
UGGCAGCAAUAUUACGCAGC	–	-2.2 ± 0.39
UGGCAGCAAUAUUACGCCCU	-0.69 ± 0.27	–
UGGCAGCAAUAUUACGCGCC	–	-2.9 ± 0.19
UGGCAGCAAUAUUACGGAUA	-0.806 ± 0.098	-0.358 ± 0.11
UGGCAGCAAUAUUACGGGAU	-2.84 ± 0.23	-2.48 ± 0.23
UGGCAGCAAUAUUACGGGCC	–	-1.78 ± 0.28
UGGCAGCAAUAUUACGUCCG	-0.782 ± 0.095	-0.304 ± 0.13
UGGCAGCAAUAUUACGUCUA	-0.425 ± 0.091	0.66 ± 0.11
UGGCAGCAAUAUUACGUGAU	-1.46 ± 0.13	-1.29 ± 0.17
UGGCAGCAAUAUUACGUGCA	-0.0165 ± 0.1	-0.0321 ± 0.14
UGGCAGCAAUAUUACGUGCU	-2.71 ± 0.14	-1.79 ± 0.17
UGGCAGCAAUAUUACGUGGA	-2.38 ± 0.17	-1.02 ± 0.13
